The results in this text go back to publication PMC4354037.

For the series, the target named is T1, BSU Pol I (BSU polymerase) (Bacillus subtilis) (UniProt O34996).
T1 sequence: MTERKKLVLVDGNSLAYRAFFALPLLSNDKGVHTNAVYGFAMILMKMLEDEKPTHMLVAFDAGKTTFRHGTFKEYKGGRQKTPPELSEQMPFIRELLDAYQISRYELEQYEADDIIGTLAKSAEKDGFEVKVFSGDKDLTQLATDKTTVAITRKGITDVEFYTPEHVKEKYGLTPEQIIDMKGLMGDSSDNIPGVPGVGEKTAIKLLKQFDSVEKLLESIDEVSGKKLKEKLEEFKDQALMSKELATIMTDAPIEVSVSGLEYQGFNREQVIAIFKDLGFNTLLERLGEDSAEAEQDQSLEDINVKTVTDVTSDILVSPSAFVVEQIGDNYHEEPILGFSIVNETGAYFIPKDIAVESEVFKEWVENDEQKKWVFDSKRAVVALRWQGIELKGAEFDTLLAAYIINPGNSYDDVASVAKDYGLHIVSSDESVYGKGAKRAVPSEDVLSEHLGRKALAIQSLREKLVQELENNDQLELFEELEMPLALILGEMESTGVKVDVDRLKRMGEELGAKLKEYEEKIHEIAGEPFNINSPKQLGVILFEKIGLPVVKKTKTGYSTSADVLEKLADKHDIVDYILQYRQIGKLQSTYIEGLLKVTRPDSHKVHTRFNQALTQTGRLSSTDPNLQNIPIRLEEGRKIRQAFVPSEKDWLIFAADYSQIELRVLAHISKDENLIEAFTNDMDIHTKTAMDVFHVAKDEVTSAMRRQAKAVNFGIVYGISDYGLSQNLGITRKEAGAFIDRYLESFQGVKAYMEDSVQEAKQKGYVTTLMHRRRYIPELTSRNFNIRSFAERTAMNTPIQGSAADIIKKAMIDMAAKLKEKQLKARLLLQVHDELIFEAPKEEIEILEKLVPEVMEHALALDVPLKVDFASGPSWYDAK
Nature of the series: stopped-flow fluorescence quenching. Particulars: 375 mM NaCl, 10 mM MgSO4, fluorescein-modified thymidine in primer, five bases from the incorporation site, Stopped flow: 20 mM ACES pH 7.4, 62.5-325 mM NaCl (Methods; 375 mM in Results), 10 mM MgSO4, 1 uM acetylated BSA, 0.02% Tween-20, 1 mM TCEP, 600 nM enzyme ….

“GCTTGCACAGGGCCTCGAC / CGTTAGTAAGGTCGAGGCCCTGTGCAAGC [stopped-flow primer/template duplex]” displayed a binding signal (fold signal over mismatch) (correct nucleotide dCTP 100 uM) of 3.5. Under “mismatch nucleotide dATP”, this sequence came in with a binding signal (reference signal (correct is 3.5-fold)) of 1.
